Source: article PMC5523967, “Dimerized Domain V of Beta2-Glycoprotein I Is Sufficient to Upregulate Procoagulant Activity in PMA-Treated U937 Monocytes and Require Intact Residues in Two Phospholipid-Binding Loops” (Antibodies, 2017)

What was measured:
Assay in all cases: ITC; A1 (500 μM) in the injection syringe titrated in 2 μL increments into HA-DV or HA-DV variant (50 μM) in the sample cell; 298 K; 25 mM Hepes pH 7.1, 50 mM NaCl, 2 mM CaCl2; one site binding model
Conditions in all cases: both partners purified
[1] = biological target: T1, HA-DV Leu313/Asn (human, UniProt P02749 263-345, Leu313/Asn)
T1 construct: beta2-glycoprotein I (β2GPI), human, domain V, residues 244-326, Leu313 to Asn; Point mutant of m2; also called Leu313/Asn variant of HA-DV; source: expressed from a pET15b vector and purified as previously described [34]; not shown: HA, N-terminal, kept
T1 sequence (looked up): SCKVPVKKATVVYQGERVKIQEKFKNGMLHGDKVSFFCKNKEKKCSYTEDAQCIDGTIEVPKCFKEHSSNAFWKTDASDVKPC

[2] = biological target: T2, HA-tagged domain V of human β2GPI (HA-DV), wild type (human, UniProt P02749 263-345)
T2 construct: beta2-glycoprotein I (β2GPI), human, domain V, residues 244-326; also called wild type HA-DV; β2GPI-DV; source: expressed from a pET15b vector and purified as previously described [34]; not shown: HA, N-terminal, kept
T2 sequence (looked up): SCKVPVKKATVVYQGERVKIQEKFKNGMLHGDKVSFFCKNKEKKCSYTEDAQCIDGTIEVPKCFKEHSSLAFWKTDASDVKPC

[3] = biological target: T3, HA-DV Lys282/Arg (human, UniProt P02749 263-345, Lys282/Arg)
T3 construct: beta2-glycoprotein I (β2GPI), human, domain V, residues 244-326, Lys282 to Arg; Point mutant of m2; also called Lys282/Arg variant of HA-DV; source: expressed from a pET15b vector and purified as previously described [34]; not shown: HA, N-terminal, kept
T3 sequence (looked up): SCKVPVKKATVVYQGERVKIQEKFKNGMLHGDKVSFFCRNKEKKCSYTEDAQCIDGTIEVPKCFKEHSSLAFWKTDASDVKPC

[4] = biological target: T4, HA-DV Leu313/Asp_Phe315/Ser (human, UniProt P02749 263-345, Leu313/Asp | Phe315/Ser)
T4 construct: beta2-glycoprotein I (β2GPI), human, domain V, residues 244-326, Leu313 to Asp and Phe315 to Ser; Double mutant of m2; source: expressed from a pET15b vector and purified as previously described [34]; not shown: HA, N-terminal, kept
T4 sequence (looked up): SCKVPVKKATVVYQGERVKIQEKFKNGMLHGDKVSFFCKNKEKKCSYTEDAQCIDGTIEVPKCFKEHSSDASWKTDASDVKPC

[5] = biological target: T5, HA-DV Lys308/Arg (human, UniProt P02749 263-345, Lys308/Arg)
T5 construct: beta2-glycoprotein I (β2GPI), human, domain V, residues 244-326, Lys308 to Arg; Point mutant of m2; also called Lys308/Arg variant of HA-DV; source: expressed from a pET15b vector and purified as previously described [34]; not shown: HA, N-terminal, kept
T5 sequence (looked up): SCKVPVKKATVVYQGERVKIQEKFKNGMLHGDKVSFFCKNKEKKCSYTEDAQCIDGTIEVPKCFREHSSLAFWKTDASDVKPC

Measured: binding result

B1: A1, fragment of mouse ApoER2 (residues 12-47) in which Asp is substituted for Asn36 (domain or fragment)
chain: not shown
notes: source: Escherichia coli, purified as previously described [64]
binds: all assays above
